Assay results taken from PMC10348947, “Catalytic antibodies in arrhythmogenic cardiomyopathy patients cleave desmoglein 2 and N-cadherin and impair cardiomyocyte cohesion” (Cellular and Molecular Life Sciences: CMLS, 2023).

Biological target: the molecule itself
Experiment: atomic force microscopy (cell-free force spectroscopy); the same Fc construct covalently linked via a PEG linker to the AFM tip and to the mica sheet; 37 °C; HBSS buffer; loading force 0.3 nN, contact delay 0.1 s, retraction velocity 1 µm/s; 1000 force-distance curves for the baseline trans-interaction probability, then 1 h with patient or control IgG (1:50)

B1: Recombinant human N-cadherin extracellular domain tagged with Fc fragment (N-CAD-Fc) (Fc fusion, UniProt P19022 160-724, looked up)
chain: DWVIPPINLPENSRGPFPQELVRIRSDRDKNLSLRYSVTGPGADQPPTGIFIINPISGQLSVTKPLDREQIARFHLRAHAVDINGNQVENPIDIVINVIDMNDNRPEFLHQVWNGTVPEGSKPGTYVMTVTAIDADDPNALNGMLRYRIVSQAPSTPSPNMFTINNETGDIITVAAGLDREKVQQYTLIIQATDMEGNPTYGLSNTATAVITVTDVNDNPPEFTAMTFYGEVPENRVDIIVANLTVTDKDQPHTPAWNAVYRISGGDPTGRFAIQTDPNSNDGLVTVVKPIDFETNRMFVLTVAAENQVPLAKGIQHPPQSTATVSVTVIDVNENPYFAPNPKIIRQEEGLHAGTMLTTFTAQDPDRYMQQNIRYTKLSDPANWLKIDPVNGQITTIAVLDRESPNVKNNIYNATFLASDNGIPPMSGTGTLQIYLLDINDNAPQVLPQEAETCETPDPNSINITALDYDIDPNAGPFAFDLPLSPVTIKRNWTITRLNGDFAQLNLKIKFLEAGIYEVPIIITDSGNPPKSNISILRVKVCQCDSNGDCTDVDRIVGAGLGTGA
notes: N-cadherin (N-CAD), human, extracellular domain-containing protein; The Western blot and cleavage assay used Sino Biological #11039-H03H, probably the same protein; The chain was covalently linked through a PEG linker to the AFM tip and the mica sheet; also called hN-CAD-Fc
  binding result: binds
